Data from the supplement of paper PMC10065799, “High-throughput profiling of sequence recognition by tyrosine kinases and SH2 domains using bacterial peptide display” (eLife, 2023).

The sequences below were run on AncSZ (assay: phosphorylation enrichment, bacterial display (enrichment ratio); higher = better substrate or ligand; peptides without Tyr show the background).
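Further: 11-residue human phosphosite peptides and single-mutation variants displayed on the E. coli surface, counted by deep sequencing, each peptide's frequency after selection divided by its frequency in the unselected input library; frequency after pTyr selection over input frequency; kinase dosed for 20-30% of maximal phosphorylation in three min.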

Point of comparison: AGQERYRAITS [RAB11B_Y73], phosphorylation enrichment 0.641. Against it:
- TFEYRYLEDRD [CNOT3_Y746] — higher, 1.16
- GIYSGYDDAWD [POLR1C_Y36_N32I] — higher, 1.44
- QSSALYEDRYL [ASS1_Y83] — higher, 1.15
- RAVLLYEYVGK [NATD1_Y45] — higher, 3.07
- TVQVAYYTMMM [SPATA17_Y83] — higher, 1.91
- KPGLIYNKVNP [SPRED3_Y72_V71I] — higher, 0.703
- RPGSGYTNIMR [PKLR_Y564] — lower, 0.64
- PNAYIYVVQLP [L1CAM_Y420_A415P] — higher, 1.53
- GGYNNYGYGSD [HNRNPH3_Y159_N163S] — higher, 0.71
- IKNSGYISQFL [EIF2AK3_Y585_R588Q_YF] — lower, 0.531
- STSFDYCRVPM [BST2_Y8_YF] — higher, 2.98
- DEENFYQGSME [ASCC1_Y36_D34N] — higher, 1.3
- VDSLRYIFPKL [EIF2B3_Y92_A87V_YF] — higher, 0.704
- DFCDLYGGEKF [PTPN11_Y66_Y63C_YF] — higher, 1.03
- RMGNLYDIDEN [GRIN2A_Y1246_D1251N] — higher, 1.52
- VVVTKYCKEEL [ATP7B_Y1078_A1074V] — higher, 1.08
- AGTIPYHAHLD [ASS1_Y291_L290P] — lower, 0.507
- ANAYIYDVQLP [L1CAM_Y420_V421D] — higher, 1.25
- FGMQLYQNFMH [GRB14_Y347_YF] — higher, 1.06
- EKPAKYDDIKK [GAPDH_Y255] — higher, 0.782
- KRYRIYHLAIS [BRCA2_Y3009_T3013I] — lower, 0.535
- LLINKYGLSDH [SCP2_Y151_A155D] — higher, 1.08
- FHLLPYTVRAM [PARS2_Y93_YF] — higher, 0.8
- RREWFYEVIIA [BACE1_Y260_V265A_YF] — higher, 0.927
- LNPFIYSLRNC [OR1A2_Y288_W293C] — higher, 1.45
- RASDYYSQQMA [GBP6_Y334_A331S] — higher, 0.891
- RFLRGYRQHAY [HLA-A_Y137_D140H] — higher, 1.1
- ISSLLYELLEE [TRPC6_Y896_R895L] — higher, 1.94
- TEQMAYCPIQC [SHC4_Y403] — higher, 1.17
- PQAVRYIFTID [DCX_Y103_G100A_YF] — higher, 1.15
- LNPDGYKKAYE [CPXM2_Y427_E428K] — higher, 0.905
- RTTIHYNFMCN [TP53_Y234_C229R_YF] — higher, 1.33

Each sequence was assayed on c-Src in the same assay as above.

Point of comparison: GGYNNYGYGSD [HNRNPH3_Y159_N163S], phosphorylation enrichment 0.38. Against it:
- TFEYRYLEDRD [CNOT3_Y746] — higher, 0.537
- GIYSGYDDAWD [POLR1C_Y36_N32I] — higher, 5.63
- QSSALYEDRYL [ASS1_Y83] — higher, 1.2
- RAVLLYEYVGK [NATD1_Y45] — higher, 5.21
- TVQVAYYTMMM [SPATA17_Y83] — higher, 4.49
- KPGLIYNKVNP [SPRED3_Y72_V71I] — higher, 0.975
- RPGSGYTNIMR [PKLR_Y564] — higher, 0.707
- PNAYIYVVQLP [L1CAM_Y420_A415P] — higher, 1.31
- IKNSGYISQFL [EIF2AK3_Y585_R588Q_YF] — higher, 0.385
- STSFDYCRVPM [BST2_Y8_YF] — higher, 0.957
- DEENFYQGSME [ASCC1_Y36_D34N] — higher, 0.733
- VDSLRYIFPKL [EIF2B3_Y92_A87V_YF] — higher, 0.526
- DFCDLYGGEKF [PTPN11_Y66_Y63C_YF] — higher, 2.78
- AGQERYRAITS [RAB11B_Y73] — higher, 0.512
- RMGNLYDIDEN [GRIN2A_Y1246_D1251N] — higher, 3.1
- VVVTKYCKEEL [ATP7B_Y1078_A1074V] — higher, 0.492
- AGTIPYHAHLD [ASS1_Y291_L290P] — lower, 0.377
- ANAYIYDVQLP [L1CAM_Y420_V421D] — higher, 7.22
- FGMQLYQNFMH [GRB14_Y347_YF] — higher, 3.67
- EKPAKYDDIKK [GAPDH_Y255] — lower, 0.352
- KRYRIYHLAIS [BRCA2_Y3009_T3013I] — higher, 0.459
- LLINKYGLSDH [SCP2_Y151_A155D] — higher, 0.712
- FHLLPYTVRAM [PARS2_Y93_YF] — higher, 0.711
- RREWFYEVIIA [BACE1_Y260_V265A_YF] — higher, 0.498
- LNPFIYSLRNC [OR1A2_Y288_W293C] — higher, 6.28
- RASDYYSQQMA [GBP6_Y334_A331S] — higher, 0.41
- RFLRGYRQHAY [HLA-A_Y137_D140H] — higher, 1.11
- ISSLLYELLEE [TRPC6_Y896_R895L] — higher, 3.33
- TEQMAYCPIQC [SHC4_Y403] — higher, 0.949
- PQAVRYIFTID [DCX_Y103_G100A_YF] — higher, 0.385
- LNPDGYKKAYE [CPXM2_Y427_E428K] — higher, 0.513
- RTTIHYNFMCN [TP53_Y234_C229R_YF] — higher, 0.514

The sequences below were run on c-Abl (mouse) in the same assay as above.

Point of comparison: DEENFYQGSME [ASCC1_Y36_D34N], phosphorylation enrichment 0.821. Against it:
- TFEYRYLEDRD [CNOT3_Y746] — higher, 0.827
- GIYSGYDDAWD [POLR1C_Y36_N32I] — higher, 0.835
- QSSALYEDRYL [ASS1_Y83] — lower, 0.61
- RAVLLYEYVGK [NATD1_Y45] — higher, 1.24
- TVQVAYYTMMM [SPATA17_Y83] — higher, 1.36
- KPGLIYNKVNP [SPRED3_Y72_V71I] — higher, 0.857
- RPGSGYTNIMR [PKLR_Y564] — lower, 0.723
- PNAYIYVVQLP [L1CAM_Y420_A415P] — higher, 1.18
- GGYNNYGYGSD [HNRNPH3_Y159_N163S] — lower, 0.608
- IKNSGYISQFL [EIF2AK3_Y585_R588Q_YF] — lower, 0.625
- STSFDYCRVPM [BST2_Y8_YF] — higher, 0.932
- VDSLRYIFPKL [EIF2B3_Y92_A87V_YF] — higher, 0.85
- DFCDLYGGEKF [PTPN11_Y66_Y63C_YF] — higher, 0.833
- AGQERYRAITS [RAB11B_Y73] — lower, 0.605
- RMGNLYDIDEN [GRIN2A_Y1246_D1251N] — higher, 2.11
- VVVTKYCKEEL [ATP7B_Y1078_A1074V] — higher, 0.873
- AGTIPYHAHLD [ASS1_Y291_L290P] — lower, 0.474
- ANAYIYDVQLP [L1CAM_Y420_V421D] — higher, 0.954
- FGMQLYQNFMH [GRB14_Y347_YF] — lower, 0.777
- EKPAKYDDIKK [GAPDH_Y255] — lower, 0.632
- KRYRIYHLAIS [BRCA2_Y3009_T3013I] — lower, 0.449
- LLINKYGLSDH [SCP2_Y151_A155D] — lower, 0.794
- FHLLPYTVRAM [PARS2_Y93_YF] — lower, 0.546
- RREWFYEVIIA [BACE1_Y260_V265A_YF] — lower, 0.483
- LNPFIYSLRNC [OR1A2_Y288_W293C] — lower, 0.792
- RASDYYSQQMA [GBP6_Y334_A331S] — lower, 0.458
- RFLRGYRQHAY [HLA-A_Y137_D140H] — higher, 1.31
- ISSLLYELLEE [TRPC6_Y896_R895L] — higher, 1.31
- TEQMAYCPIQC [SHC4_Y403] — lower, 0.754
- PQAVRYIFTID [DCX_Y103_G100A_YF] — higher, 0.863
- LNPDGYKKAYE [CPXM2_Y427_E428K] — higher, 1.35
- RTTIHYNFMCN [TP53_Y234_C229R_YF] — higher, 2.01

What follows are sequences tested against Hck (UniProt P08631) in the same assay as above.
Chain of Hck (P08631 whole entry, looked up): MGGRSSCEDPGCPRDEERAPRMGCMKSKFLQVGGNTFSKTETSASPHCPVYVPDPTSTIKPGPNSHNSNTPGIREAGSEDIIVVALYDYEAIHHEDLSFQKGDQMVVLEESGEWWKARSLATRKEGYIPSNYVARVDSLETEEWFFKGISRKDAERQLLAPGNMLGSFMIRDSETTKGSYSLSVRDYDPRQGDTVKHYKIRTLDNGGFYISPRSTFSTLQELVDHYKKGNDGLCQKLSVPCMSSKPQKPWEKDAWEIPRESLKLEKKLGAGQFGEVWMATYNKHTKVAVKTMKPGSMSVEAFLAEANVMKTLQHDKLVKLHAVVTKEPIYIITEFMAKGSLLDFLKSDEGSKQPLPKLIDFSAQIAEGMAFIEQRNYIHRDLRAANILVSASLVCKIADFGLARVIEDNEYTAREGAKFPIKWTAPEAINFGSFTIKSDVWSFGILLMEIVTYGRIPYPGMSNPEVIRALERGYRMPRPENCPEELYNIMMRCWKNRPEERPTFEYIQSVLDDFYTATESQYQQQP

Point of comparison: RASDYYSQQMA [GBP6_Y334_A331S], phosphorylation enrichment 0.611. Against it:
- TFEYRYLEDRD [CNOT3_Y746] — lower, 0.534
- GIYSGYDDAWD [POLR1C_Y36_N32I] — higher, 5.99
- QSSALYEDRYL [ASS1_Y83] — higher, 4.44
- RAVLLYEYVGK [NATD1_Y45] — higher, 10.4
- TVQVAYYTMMM [SPATA17_Y83] — higher, 2.19
- KPGLIYNKVNP [SPRED3_Y72_V71I] — higher, 2.25
- RPGSGYTNIMR [PKLR_Y564] — higher, 0.784
- PNAYIYVVQLP [L1CAM_Y420_A415P] — higher, 0.832
- GGYNNYGYGSD [HNRNPH3_Y159_N163S] — lower, 0.475
- IKNSGYISQFL [EIF2AK3_Y585_R588Q_YF] — lower, 0.458
- STSFDYCRVPM [BST2_Y8_YF] — higher, 1.57
- DEENFYQGSME [ASCC1_Y36_D34N] — higher, 0.7
- VDSLRYIFPKL [EIF2B3_Y92_A87V_YF] — lower, 0.385
- DFCDLYGGEKF [PTPN11_Y66_Y63C_YF] — higher, 1.76
- AGQERYRAITS [RAB11B_Y73] — lower, 0.527
- RMGNLYDIDEN [GRIN2A_Y1246_D1251N] — higher, 1.86
- VVVTKYCKEEL [ATP7B_Y1078_A1074V] — lower, 0.546
- AGTIPYHAHLD [ASS1_Y291_L290P] — lower, 0.484
- ANAYIYDVQLP [L1CAM_Y420_V421D] — higher, 6.89
- FGMQLYQNFMH [GRB14_Y347_YF] — higher, 3.03
- EKPAKYDDIKK [GAPDH_Y255] — lower, 0.426
- KRYRIYHLAIS [BRCA2_Y3009_T3013I] — lower, 0.446
- LLINKYGLSDH [SCP2_Y151_A155D] — higher, 0.826
- FHLLPYTVRAM [PARS2_Y93_YF] — lower, 0.501
- RREWFYEVIIA [BACE1_Y260_V265A_YF] — lower, 0.598
- LNPFIYSLRNC [OR1A2_Y288_W293C] — higher, 5.22
- RFLRGYRQHAY [HLA-A_Y137_D140H] — higher, 1.06
- ISSLLYELLEE [TRPC6_Y896_R895L] — higher, 3.25
- TEQMAYCPIQC [SHC4_Y403] — higher, 0.949
- PQAVRYIFTID [DCX_Y103_G100A_YF] — higher, 0.673
- LNPDGYKKAYE [CPXM2_Y427_E428K] — lower, 0.515
- RTTIHYNFMCN [TP53_Y234_C229R_YF] — lower, 0.54
